tested on: Bacillus subtilis DB104 (SP-AmyQ fusion secretion); test: AmyQ secretion efficiency, weighted average sort bin (1 = best secretion, 10 = worst) (bin number (weighted average, 1-10)); higher = lower secretion efficiency
Outline: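 Secretion score gives the read-frequency-weighted average bin number, normalised to beads per bin, with low-abundance sequences left out. A B. subtilis DB104 library expressing mature AmyQ fused to designed signal peptides, integrated at amyE, was encapsulated with fluorescein-starch at about 0.3 cells per ~65 nL alginate bead. Beads were grown about 13 h at room temperature, stained with nile red, and the occupied ones were sorted by large-particle flow cytometry into 10 equally populated bins by green/red fluorescence ratio before the amplicons from each bin were Illumina-sequenced.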

Sequence	AmyQ secretion efficiency
MRKTIFAFLTGLMMFGTITAASRSPD	6.51
MKLKKRVSMTSKSSGSCRSLFVTPAKAVKT	7.23
MKWMCSICCAAVLLAGGAAASSSVVAQAEAV	3.55
MRSYIKVLTMCFLGLILFVPTTVVALADNS	2.15
MAIIIAIIAAVIVIAALITFNVRNCSPG	5.87
MRPVFPLILSAVLFLSCFKKKRRTRASASKR	6.66
MRKNRLLLNILALFVLSLGLLSFMVTPVSAASK	1.08
MLSMNLWISLLFALTLIFTMAFSNMSAQAAGK	1.93
MAIIIAIIAAVIVIAALITFTSNVRNASPG	7.45
MKKLLAAGIIGLLTVSIASPSFQAEK	7.82
MKLSVKIAGVLTVAAAAMEDDMYATAKGN	6.49
MGKWIYVVLVLSIAGIGGFSVHAASS	6.5
MRSYIKTFNVLTMCFLGLILFVPTALADNS	2.59
MKRFSTAYLLLGILCSAAVFLIGAPSRCLGAEV	3.15
MKKTIMSFVAVAALSTTAFGAHASAAKR	2.03
MFKKHTISLLIIFLLASAVLAKPPPTTATIEAHTV	7.2
MKKWMAGLFLAAAVLLCLMVPQQMQGASS	5.46
MKLRKVLTGSVLSLGLLVSASPAFARKR	5.66
MKKAFILSAAAAVGLFTFGGVQQISAKEL	3.06
MKKLLAAGIIGLLTVSIASPSFAASD	2.22
MKIRKILLSSALSFGMLISAVPALAAEE	2.95
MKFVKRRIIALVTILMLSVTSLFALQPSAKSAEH	2.64
MTKRGIQAFAGGIYLTDEDQAAAV	7.17
MKLWMRKTLVVLFTIVTFGLVSPPAATMADKP	2.68
MHLIRAAGAVCLAVVLIAGCAFNEDQHQAEGENT	5.56
MKKAAAVLLSLGLVFGFSYGAGHVKEAKTK	6.72

Sequence	AmyQ secretion efficiency
MKLKSKLLLSCLALSTVFVATTIANNPTH	5.17
MKRLLVSLRVWMVFLMNWVTPDRKTGAAAVY	6.91
MFFTIVAGLAVSAVVGSSMAAAPAEAKTI	2.75
MKKKQVSHAIIISVMLSFVIAVFHTIHKSELTP	4.63
MKLKKRVSMFLVALTMCGGLFVTPFKAVKT	6.39
MSMMSKLSLGVASAALGLALVGGGTWAAFN	5.67
MKRLLSTLLIGIMLLFFIFFTFAPSAFAKQD	1.97
MKKIMSAFVGMVLLTIFCVSTLTFSPQASAAYD	4.76
MKLAKRVSALTPSTTLAITRKAKEL	7.25
MKLAKRVSALTPSTTLAIEAKAKEL	7.23
MSKLVLCVSILAVILSGVALTQLS	6.37
MRGKSAVLLSLIMLIAGFLIEFSFQM	8.38
MLTKRLRKKKRRLLGLIAWFPGAAQAEEK	7.67
MKSCKQLIVCSLAAILLLIPSVSFSTSTGASSFAADS	6.07
MKQIMIFLTSFMMTGQTALAKDV	3.81
MYKKFVPTYTKYFLFFVSFEMMENPHALDY	6.52
MRRKKRKAVLLSLIMLIAGFLISFSFQM	7.79
MKKKLAAGLTASAIVGTTLVTTISAVTPAEAATI	2.98
MVKKWYYQSKSSLSVLSTFTYSASAVGV	5.88
MIAYFGKCLLLVTIMFLGVLFGMFQANHG	6.57
MPYLKRVLLLLVTGLFMSLFAVTATASRQTG	1.19
MLKKKWMVGLLAGCLAAGGFSYNLFATEN	5.92
MKKRLIAPMLLSAASLAFFAEEEEDEAQAAAY	3.9
MNKPTKLFSTLALAAGMTRRKKRKAGTIHAQQP	6.79
MKLSVKIAGVLTVAAAAMVAFTIAFFFTAKMYATAKGN	2.45
MRFTKTRGQRQVLGLAAVFPLTAQAEKA	7.51

Sequence	AmyQ secretion efficiency
MTKKAWFLPLVCVLLISGWLAPAASASNQTT	2.2
MKQGKFSVFLILLLMLTLVVAPKEKAEHASS	4.93
MTKKTSIILITSAWFLPLVCVLLISGWLAPAASASAQTT	2.35
MKKARRVLLSLGLVFGFSYGAGHVAEAKTK	2.43
MGQGKGSVFLILLLMLTLVVAPKEKAEAASS	1.82
MMQIMIFLTSFMLLAMTGQTALAKDV	4.32
MRKRKILLSSALSLGMLVSAAPVLATSS	2.04
MKRQGKSKSYAAVILSGWFIADHQTHSQEM	7.16
MRGKSAVLLSLIMLIAGFLISFSFQD	6.77
MKSCKQLIVCSLAAILLLPPEVSFAADS	2.83
MMKKLFHSTLIVLLFFSFFGVQPVASSASTIHAKKQ	2.41
MKKIVSILFMFGLVMGFSQFQPSTVFAAED	2.13
MLKKIALTLCPAIVGSLLFFTAPASGHVS	2.72
MGLGKKLSVAVAASFMSLSISLPGVAAGFVFVQAAEG	4.93
MLKKIALTLCPAIVGSLLAPASAHVS	4.32
MTKKRRRAWFLPLVCVLLISGWLAPAASASAQTT	2.33
MKVCQKSIKRFLVSLIIGTFVISVPFMANAQSD	1.93
MFNRLFRVCFLAALIMAFTLPNSKYAQKP	6.56
MTKLKMLSMLTVMIASLFIFSSQGLAVQY	2.52
MKKKQVMLALTAAAGLGLTALHSAPAHKAAPL	6.85
MFKKGYSSYRKRTFSLSLVLPLDGHAKAQEV	7.96
MKSKWQRKRRSGLLLVAVGFSFTQVMVHAGET	6.49
MTVPITMLLSTAAGLLLSLTATSVSAHYV	6.06
MKRLFMKAKLVLFAVVFVFAVKGAPAKAETH	2.67
MKKQIITATTAVVLGSTLFAGAASIQSI	5.61
MKKAAAVLLSLGLVFDESYGAGHVAEAKTK	2.18

Sequence	AmyQ secretion efficiency
MNKPTKLFSTLALAAGMTKDKTTSAGTIHAQQP	7.85
MKWMCSICCAAVLLAGGAPQAEAV	2.41
MKRLLSTLLIGITFAPSAFAKQD	2.73
MNKLKRLSMLTVMIASVFIFSSHALAADD	4.21
MKKAFILSAAAAVGLFTFGGVQQASVKEL	6.39
MGLGKKLSVAVAASFMSLSISLPGVQDAEG	3.93
MRKYTVIASILLSFLSVLSGGHHEVATSKAFPV	3.74
MKKWMITIAMLILAGIALFVFIRKKRRLKSHKT	6.07
MKKIWIGMLAAAVLLLMVPKVVLADAA	3.66
MKKCLLFLTTIALILSLSTNAFAEDE	4.16
MTKLKMLSMLTVMIASLFIFSSQALVVQY	5.36
MRMLWRSLALCGLALTLAPCAQAAKK	2.93
MKSKGSIMACLILFSFTITTFINTETTSAFSN	5.51
MKLRKVLTGSVLSLGLLRKKSPAFATSP	8.19
MKLSVKIAGVLTVAAAAMVAIMGATAKGN	8.27
MAIIIAIIAAVIVIAALITFNVRNNSPG	6.02
MRKTIFAFLTGLMMFGTITAASKSPD	6
MRKKTKNRLISSVLSTVVISSLLFKRKAGASSK	7.11
MKKIMSAFVGMVLLTIFCKKRKRRASAAYD	7.21
MAAQTDYKKQVVGILLSLAFVLFVFSRSERHE	4.39
MRFTKVRRRRKKLGLAAVFPLTAQAEKA	7.25
MKSKWMSGLLLVAVGFSFTQVMVHADEE	6.6
MKRSIMLSNIIILLVSLRVWMVFLMNWVTPDRKTAAAAVY	6.91
MKVLLSALLLLLFAFEPSASMKKL	6.8
MKLSVKIAGVLTVAAAAMTAKMYWTAKGN	7.62
MRPVFPIMNNILLILSAVLFLSCFFGARQTEASASKR	1.84

Sequence	AmyQ secretion efficiency
MLKKIALTLCPAIVGSLLFFTAPASTHVS	5.85
MRGKSAVLLSLIMLIAGFLISFQFQM	7.36
MGGGFSILIMMTGLLFGLTSPAFAAEK	3.63
MNKLKRLSMLTVMIASVFIFSASFFTSHALAAQY	2.06
MKVPKTMNFSFTLLSTAAGLLLSLTATSVSAHYV	5.47
MLGMGWMVGLLAGCLAAGGFSYNAFATEN	6.54
MKKRFSLIMMTGLLFGLTKKRAFAAEK	6.54
MKKGIIRFLLVSFVLFFALSTGITGVQYAPA	4.56
MKKWLIIAVSLAIAIVLFMYTKGEAKVAGM	5.3
MPYLKRVLLLLVTGLFMSLFAVTATDSAQTG	6.72
MKRKQQKSLAISALSLGLLVSAPTASFAAES	3.07
MKKGIIRKTLVSFVLFFALSTGITGVQAAPA	2
MRPVFPLILSAVLFLSCFFGARQTEVSASKR	2.58
MKKWLIIAVSLAIAIVLFMYTKGEAKAAED	2.66
MKKRFFGPIILAFAGAIAIPS	9.34
MKKKLAAGLTASAIVGTTLVVTPVEAATI	2.24
MKYCQKSISRFLVSLIIGTFVISVPFMANAQSD	3.17
MLKKKWMVGLLAGCLAAGGFSYNRFATEN	6.33
MKWMCSICCAAVLLAGGANQAEAV	2.83
MPYLKRVLLLLVTGLFMSLFAVTATASIQTG	1.67
MQKKWRRRLIQFAVMLSVLSTFTYSASAVGV	3.56
MKKRLIAPMLLSAASLAFFAKRKSAQAAAY	7.88
MLKKKWMVGLLAGCLAAGGFSYNAFCTEN	6.56

— the supplement of paper PMC9942255
